The record followed here is PMC6176016 (2018).

The target of assay [1] is BAFF (as used in microscale thermophoresis) (UniProt Q9Y275 134-285). Nature of the assay: MST.
Assay [2] has as its target T1, FLAG-tagged multimerized MegaAPRIL.
T1 chain: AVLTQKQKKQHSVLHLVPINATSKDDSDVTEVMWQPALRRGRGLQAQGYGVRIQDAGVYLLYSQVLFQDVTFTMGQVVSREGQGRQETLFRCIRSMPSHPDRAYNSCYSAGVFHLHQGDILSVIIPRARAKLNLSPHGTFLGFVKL
Briefly: MST.

BAFF (as used in microscale thermophoresis), sequence (Q9Y275 134-285): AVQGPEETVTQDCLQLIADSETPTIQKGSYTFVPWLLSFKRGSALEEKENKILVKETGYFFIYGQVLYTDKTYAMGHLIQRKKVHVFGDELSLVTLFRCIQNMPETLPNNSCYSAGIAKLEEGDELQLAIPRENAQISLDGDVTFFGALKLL

B1: FLAG-tagged TACI-S, purified recombinant (receptor)
chain: MSGLGRSRRGGRSRVDQEERWSLSCRKEQGKFYDHLLRDCISCASICGQHPKQCAYFCENKLRSPVNLPPELRRQRSGEVENNSDNSGRYQGLEHRGSEASPALPGLKLSADQVALVYSTLGLCLCAVLCCFLVAVACFLKKRGDPCSCQPRSRPRQSPAKSSQDHAMEAGSPVSTSPEPVETCSFCFPECRAPTQESAVTPGTPDPTCAGRWGCHTRTTVLQPCPHIPDSGLGIVCVPAQEGGPGA
modifications: fluorescently labeled at the N-terminus (Monolith NT Protein Labeling Kit RED-NHS)
For B1, the Kd (as a rule, the constant that tells how readily two partners part at equilibrium) worked out at 586 nM in assay [1] and 185 nM in assay [2].

B2: FLAG-TACI-L (receptor)
chain: MSGLGRSRRGGRSRVDQEERFPQGLWTGVAMRSCPEEQYWDPLLGTCMSCKTICNHQSQRTCAAFCRSLSCRKEQGKFYDHLLRDCISCASICGQHPKQCAYFCENKLRSPVNLPPELRRQRSGEVENNSDNSGRYQGLEHRGSEASPALPGLKLSADQVALVYSTLGLCLCAVLCCFLVAVACFLKKRGDPCSCQPRSRPRQSPAKSSQDHAMEAGSPVSTSPEPVETCSFCFPECRAPTQESAVTPGTPDPTCAGRWGCHTRTTVLQPCPHIPDSGLGIVCVPAQEGGPGA
modifications: for MST only: fluorescently labeled at the N-terminus (Monolith NT Protein Labeling Kit RED-NHS)
B2: the figures for the Kd in assay [1] and in assay [2] were 1080 nM and 567 nM, respectively.
